Test results reported in PMC5441565 (Nature, 2017).

Columns and labels:
[1] = biological target: mCherry-LacI-TIRR (human) (UniProt Q9BRJ7); assay: LacO/LacI tethering
[2] = biological target: GFP-LacI-53BP1 (human) (UniProt Q12888); assay: LacO/LacI tethering
[3] = biological target: TIRR-His (recombinant TIRR) (human, UniProt Q9BRJ7 1-211); assay: ITC
Chain of TIRR-His (recombinant TIRR) (Q9BRJ7 whole entry): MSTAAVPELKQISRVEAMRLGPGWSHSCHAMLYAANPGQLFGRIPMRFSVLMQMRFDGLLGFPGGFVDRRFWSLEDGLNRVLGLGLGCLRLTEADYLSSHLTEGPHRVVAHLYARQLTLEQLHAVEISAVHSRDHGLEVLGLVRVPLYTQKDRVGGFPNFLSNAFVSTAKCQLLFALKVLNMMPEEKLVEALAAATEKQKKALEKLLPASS

Chain of mCherry-LacI-TIRR (human) (Q9BRJ7 whole entry): as above
Chain of GFP-LacI-53BP1 (human) (Q12888 whole entry): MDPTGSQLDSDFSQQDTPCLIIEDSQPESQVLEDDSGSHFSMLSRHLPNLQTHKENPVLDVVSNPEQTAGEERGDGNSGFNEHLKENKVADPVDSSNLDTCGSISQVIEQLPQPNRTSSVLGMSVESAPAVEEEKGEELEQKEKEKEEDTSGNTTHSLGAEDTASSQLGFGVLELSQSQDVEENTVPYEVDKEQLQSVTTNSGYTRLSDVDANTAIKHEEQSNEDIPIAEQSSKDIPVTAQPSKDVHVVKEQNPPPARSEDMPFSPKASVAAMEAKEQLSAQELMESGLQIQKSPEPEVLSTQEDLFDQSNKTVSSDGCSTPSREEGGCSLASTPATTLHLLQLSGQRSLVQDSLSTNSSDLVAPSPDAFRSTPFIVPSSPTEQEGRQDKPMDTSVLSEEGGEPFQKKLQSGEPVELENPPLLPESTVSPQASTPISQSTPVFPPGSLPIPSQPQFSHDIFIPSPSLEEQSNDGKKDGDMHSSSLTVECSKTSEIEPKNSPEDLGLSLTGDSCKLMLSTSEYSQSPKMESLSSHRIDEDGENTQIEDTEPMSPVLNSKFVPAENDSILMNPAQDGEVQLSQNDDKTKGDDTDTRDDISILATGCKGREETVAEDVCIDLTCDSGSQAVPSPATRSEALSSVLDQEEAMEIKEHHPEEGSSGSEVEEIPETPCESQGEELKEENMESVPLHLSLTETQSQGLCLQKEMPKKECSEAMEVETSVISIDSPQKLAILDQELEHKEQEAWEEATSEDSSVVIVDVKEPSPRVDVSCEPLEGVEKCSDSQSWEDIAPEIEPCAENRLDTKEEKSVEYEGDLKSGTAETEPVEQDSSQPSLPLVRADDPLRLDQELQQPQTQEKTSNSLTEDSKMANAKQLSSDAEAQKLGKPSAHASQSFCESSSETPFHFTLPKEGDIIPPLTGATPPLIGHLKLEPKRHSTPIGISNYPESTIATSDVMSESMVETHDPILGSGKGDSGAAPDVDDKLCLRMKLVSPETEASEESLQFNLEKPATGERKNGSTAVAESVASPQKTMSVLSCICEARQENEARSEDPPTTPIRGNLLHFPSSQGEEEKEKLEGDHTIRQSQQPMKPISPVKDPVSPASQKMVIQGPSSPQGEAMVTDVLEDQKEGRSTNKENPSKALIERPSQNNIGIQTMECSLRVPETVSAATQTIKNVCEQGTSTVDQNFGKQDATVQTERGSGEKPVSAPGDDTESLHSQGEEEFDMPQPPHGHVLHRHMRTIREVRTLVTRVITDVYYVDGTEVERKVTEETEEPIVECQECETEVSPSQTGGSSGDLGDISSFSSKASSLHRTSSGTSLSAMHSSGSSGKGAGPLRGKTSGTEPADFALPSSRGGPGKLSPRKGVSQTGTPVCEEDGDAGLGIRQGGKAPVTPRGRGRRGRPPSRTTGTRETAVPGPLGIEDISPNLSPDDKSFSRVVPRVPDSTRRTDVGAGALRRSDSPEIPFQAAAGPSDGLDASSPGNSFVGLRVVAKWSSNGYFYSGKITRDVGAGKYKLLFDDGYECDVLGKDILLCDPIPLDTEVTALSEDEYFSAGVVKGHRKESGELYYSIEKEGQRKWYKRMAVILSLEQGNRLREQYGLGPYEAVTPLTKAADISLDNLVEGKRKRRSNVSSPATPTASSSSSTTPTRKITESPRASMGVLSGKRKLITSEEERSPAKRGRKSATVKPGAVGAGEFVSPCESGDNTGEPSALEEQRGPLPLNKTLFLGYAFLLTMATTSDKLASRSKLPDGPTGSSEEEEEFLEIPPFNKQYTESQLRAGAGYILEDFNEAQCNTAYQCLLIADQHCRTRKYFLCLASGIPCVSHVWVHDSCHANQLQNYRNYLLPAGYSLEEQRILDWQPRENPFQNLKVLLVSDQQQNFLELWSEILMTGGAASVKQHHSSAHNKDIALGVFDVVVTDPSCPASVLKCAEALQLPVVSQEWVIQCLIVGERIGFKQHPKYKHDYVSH

Molecule “53BP1 (P53-binding protein 1), endogenous (from UniProt Q12888 1-1972) (natural protein)” has a percent of cells with co-localisation on the LacO array (% of the cells) [1] of 57.5.

“mCherry-TIRR (from UniProt Q9BRJ7 1-211) (natural protein)” gave a percent of cells with co-localisation on the LacO array (% of the cells) [2] of 72.

B1: 53BP1 tandem Tudor domain (for ITC and NMR) (domain or fragment)
chain: NSFVGLRVVAKWSSNGYFYSGKITRDVGAGKYKLLFDDGYECDVLGKDILLCDPIPLDTEVTALSEDEYFSAGVVKGHRKESGELYYSIEKEGQRKWYKRMAVILSLEQGNRLREQYGLG
modifications: 15N-labelled for NMR; limits from PDB 2G3R (GHM tag remnant left out)
B1 was tested, and the Kd [3] was 790 nM and the “stoichiometry N” value [3] was 1.
